Data set [1] has as its target T1, ASF1a-NT domain (ASF1a residues 1–155) (human, UniProt Q9Y294 1-155).
T1 construct: anti-silencing factor 1a (ASF1a), human, N-terminal immunoglobulin-like domain, residues 1-155; Cloned into pGEX4T-1 as an N-terminal GST fusion and eluted with glutathione; No cleavage step is described; the structures are described with ASF1a residues only (151-155 residues per chain); also called ASF1a 1–155; ASF1-NT; source: E. coli BL21 (DE3) Rosetta 2, purified (glutathione-Sepharose, SEC)
Kind of data set: fluorescence polarisation; competition: 63 nM ASF1a 1–155 with 5 nM FITC tracer peptide and rising unlabeled peptide (15.6 nM to 256 μM for the TLK2 peptide); 50 mM Tris pH 8.0, 100 mM NaCl, 10 mM MgCl2, 1.2 mM DTT, 0.012% Brij-35, 0.2 mg/ml BSA; 295 K. Particulars: both partners purified. (In general: In fluorescence polarisation assays a small probe gives low polarisation when free and higher when bound to something large.)

In data set [2] the target is T1, ASF1a-NT domain (ASF1a residues 1–155). Kind of data set: differential scanning fluorimetry; melting temperature of ASF1a 1–155 with or without 160 μM TLK2 peptide; 20 mM HEPES, 250 mM NaCl, 0.1 mM TCEP, pH 7.5; SYPRO orange; ramp 4 to 95 °C. As to conditions: both partners purified.

Ends that are not written are not given here. * marks the point of attachment. FITC = O=C1OC2(c3ccc(O)cc3Oc3cc(O)ccc32)c2ccc(NC(=S)*)cc21; βAla = NCCC(=O)O

T1 sequence (Q9Y294 1-155): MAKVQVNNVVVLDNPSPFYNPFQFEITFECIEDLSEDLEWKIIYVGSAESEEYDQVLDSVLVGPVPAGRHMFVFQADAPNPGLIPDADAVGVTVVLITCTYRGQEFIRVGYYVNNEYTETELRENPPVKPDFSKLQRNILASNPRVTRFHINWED

B1: fluorescein-labeled TLK2 tracer peptide (FITC-βAla-LHSLDPRRQELLEARFTG) (peptide)
peptide: {FITC-βAla}-LHSLDPRRQELLEARFTG
notes: TLK2, human, N-terminal stretch; also called fluorescently labeled TLK2 peptide; TLK2 fluorescent peptide; source: synthetic peptide (Tufts University Core Facility, purified by HPLC)
As for B1, the binding result in data set [1] is recorded as “binds”.

B2: histone H3.1 peptide (ASF1-binding fragment) (peptide)
peptide: TIMPKDIQLARRIRGERA
notes: also called Histone H3 peptide; source: synthetic peptide (Genscript, >98% purity)
B2: in data set [1], the binding result is reported as “binds”.

B3: TLK2 peptide spanning residues 3–23 (peptide)
peptide: EELHSLDPRRQELLEARFTGV
notes: TLK2, human, residues 3-23; also called N-terminal TLK2 peptide; unlabeled TLK2 peptide; source: synthetic peptide (Genscript, >98% purity)
For B3, the “increase of melting temperature (160 μM peptide)” value in data set [2] was around 5 °C. Also, the EC50 in data set [1] was found to be 2200 nM.

The term EC50 denotes the concentration at which the effect is half-maximal. The low end stands for an effect from little substance, the high end for a need for much substance.

These data come from article PMC8826447 (Nature Communications, 2022).
